One assay addresses human glucagon receptor (human, UniProt P47871 26-477). The assay can be described thus: cell-based or functional assay.
The target of the next assay is human GLP-1 receptor (human, UniProt P43220 24-463). The assay can be described thus: cell-based or functional assay.

Several values for one entry are separate records, joined by “and”; a condition that tells them apart may be missing. Equal entries are not always repeated. Numbered stars: 1 amine (or outer) side, 2 acyl side, 3 side chain; on linkers, the order of the positions; unused ones are H or OH. Side chains are listed from the residue outwards. Ends that are not written are not given here. * marks the point of attachment. γGlu = O=C(O)[C@H](CCC(=O)[*:2])N[*:1]; Palmitoyl = CCCCCCCCCCCCCCCC(=O)*; Ahx = NCCCCCC(=O)O

Sequence of human glucagon receptor (P47871 26-477): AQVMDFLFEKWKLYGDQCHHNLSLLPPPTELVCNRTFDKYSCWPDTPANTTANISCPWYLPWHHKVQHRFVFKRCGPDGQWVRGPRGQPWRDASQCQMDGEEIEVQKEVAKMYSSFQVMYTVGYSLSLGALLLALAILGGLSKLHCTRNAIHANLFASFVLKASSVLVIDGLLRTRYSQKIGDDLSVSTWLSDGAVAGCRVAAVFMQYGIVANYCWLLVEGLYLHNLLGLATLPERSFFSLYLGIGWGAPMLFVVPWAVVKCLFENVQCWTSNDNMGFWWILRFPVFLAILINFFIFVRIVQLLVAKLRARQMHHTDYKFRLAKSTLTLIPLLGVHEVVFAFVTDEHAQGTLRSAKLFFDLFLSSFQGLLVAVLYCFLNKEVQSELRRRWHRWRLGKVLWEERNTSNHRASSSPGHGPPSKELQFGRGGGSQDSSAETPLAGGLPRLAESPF
Sequence of human GLP-1 receptor (P43220 24-463): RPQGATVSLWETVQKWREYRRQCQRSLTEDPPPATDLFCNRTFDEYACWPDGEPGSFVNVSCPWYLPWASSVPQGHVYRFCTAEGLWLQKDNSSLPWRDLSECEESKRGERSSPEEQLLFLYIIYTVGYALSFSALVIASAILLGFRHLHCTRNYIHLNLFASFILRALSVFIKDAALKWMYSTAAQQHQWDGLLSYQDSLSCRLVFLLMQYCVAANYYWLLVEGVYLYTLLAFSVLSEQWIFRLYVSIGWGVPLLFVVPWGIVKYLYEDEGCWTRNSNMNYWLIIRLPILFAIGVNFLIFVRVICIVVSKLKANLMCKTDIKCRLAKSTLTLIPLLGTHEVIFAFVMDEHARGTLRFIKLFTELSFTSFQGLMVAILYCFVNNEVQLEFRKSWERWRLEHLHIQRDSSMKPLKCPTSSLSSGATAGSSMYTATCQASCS

B1: g746 (peptide)
peptide: HSQGTFTSDYSKYLDSRRAQDFVK([γGlu-Palmitoyl])WLEAGG-NH2
modifications: N-terminus assumed
SMILES: CCCCCCCCCCCCCCCC(=O)N[C@@H](CCC(=O)NCCCC[C@H](NC(=O)[C@@H](NC(=O)[C@H](Cc1ccccc1)NC(=O)[C@H](CC(=O)O)NC(=O)[C@H](CCC(N)=O)NC(=O)[C@H](C)NC(=O)[C@H](CCCNC(=N)N)NC(=O)[C@H](CCCNC(=N)N)NC(=O)[C@H](CO)NC(=O)[C@H](CC(=O)O)NC(=O)[C@H](CC(C)C)NC(=O)[C@H](Cc1ccc(O)cc1)NC(=O)[C@H](CCCCN)NC(=O)[C@H](CO)NC(=O)[C@H](Cc1ccc(O)cc1)NC(=O)[C@H](CC(=O)O)NC(=O)[C@H](CO)NC(=O)[C@@H](NC(=O)[C@H](Cc1ccccc1)NC(=O)[C@@H](NC(=O)CNC(=O)[C@H](CCC(N)=O)NC(=O)[C@H](CO)NC(=O)[C@@H](N)Cc1c[nH]cn1)[C@@H](C)O)[C@@H](C)O)C(C)C)C(=O)N[C@@H](Cc1c[nH]c2ccccc12)C(=O)N[C@@H](CC(C)C)C(=O)N[C@@H](CCC(=O)O)C(=O)N[C@@H](C)C(=O)NCC(=O)NCC(N)=O)C(=O)O
On to B1, for which the figures for the cAMP EC50 (assay 1) in the assay with human glucagon receptor and with human GLP-1 receptor were 0.0354 nM and 11.5 nM, respectively.

B2: g701 (peptide)
peptide: HGQGTFTSDYSK([γGlu-Palmitoyl])YLDSERAQDFVQWLERGG-NH2
modifications: N-terminus assumed
SMILES: CCCCCCCCCCCCCCCC(=O)N[C@@H](CCC(=O)NCCCC[C@H](NC(=O)[C@H](CO)NC(=O)[C@H](Cc1ccc(O)cc1)NC(=O)[C@H](CC(=O)O)NC(=O)[C@H](CO)NC(=O)[C@@H](NC(=O)[C@H](Cc1ccccc1)NC(=O)[C@@H](NC(=O)CNC(=O)[C@H](CCC(N)=O)NC(=O)CNC(=O)[C@@H](N)Cc1c[nH]cn1)[C@@H](C)O)[C@@H](C)O)C(=O)N[C@@H](Cc1ccc(O)cc1)C(=O)N[C@@H](CC(C)C)C(=O)N[C@@H](CC(=O)O)C(=O)N[C@@H](CO)C(=O)N[C@@H](CCC(=O)O)C(=O)N[C@@H](CCCNC(=N)N)C(=O)N[C@@H](C)C(=O)N[C@@H](CCC(N)=O)C(=O)N[C@@H](CC(=O)O)C(=O)N[C@@H](Cc1ccccc1)C(=O)N[C@H](C(=O)N[C@@H](CCC(N)=O)C(=O)N[C@@H](Cc1c[nH]c2ccccc12)C(=O)N[C@@H](CC(C)C)C(=O)N[C@@H](CCC(=O)O)C(=O)N[C@@H](CCCNC(=N)N)C(=O)NCC(=O)NCC(N)=O)C(C)C)C(=O)O
Consider B2, for which the cAMP EC50 (assay 1) with human glucagon receptor came to 3.83 nM; in the assay with human GLP-1 receptor it was 7.4 nM.
In the assay with human GLP-1 receptor, HSQGTFTSDYSKYLDSRRAQDFVQWLVAGGSSGGSSK-NH2 [g317] registered a cAMP EC50 (assay 1) of 2.63 nM.

B3: g736 (peptide)
peptide: HGQGTFTSDYSKYLDSK([γGlu-Palmitoyl])RAADFVAWLVAGG-NH2
modifications: N-terminus assumed
SMILES: CCCCCCCCCCCCCCCC(=O)N[C@@H](CCC(=O)NCCCC[C@H](NC(=O)[C@H](CO)NC(=O)[C@H](CC(=O)O)NC(=O)[C@H](CC(C)C)NC(=O)[C@H](Cc1ccc(O)cc1)NC(=O)[C@H](CCCCN)NC(=O)[C@H](CO)NC(=O)[C@H](Cc1ccc(O)cc1)NC(=O)[C@H](CC(=O)O)NC(=O)[C@H](CO)NC(=O)[C@@H](NC(=O)[C@H](Cc1ccccc1)NC(=O)[C@@H](NC(=O)CNC(=O)[C@H](CCC(N)=O)NC(=O)CNC(=O)[C@@H](N)Cc1c[nH]cn1)[C@@H](C)O)[C@@H](C)O)C(=O)N[C@@H](CCCNC(=N)N)C(=O)N[C@@H](C)C(=O)N[C@@H](C)C(=O)N[C@@H](CC(=O)O)C(=O)N[C@@H](Cc1ccccc1)C(=O)N[C@H](C(=O)N[C@@H](C)C(=O)N[C@@H](Cc1c[nH]c2ccccc12)C(=O)N[C@@H](CC(C)C)C(=O)N[C@H](C(=O)N[C@@H](C)C(=O)NCC(=O)NCC(N)=O)C(C)C)C(C)C)C(=O)O
As for B3, the cAMP EC50 (assay 1) is 0.919 nM and 0.92 nM with human glucagon receptor; 0.0854 nM with human GLP-1 receptor.

B4: g318 (peptide)
peptide: HSQGTFTSDYSKYLDSRRAQDFVQWLVAGGSSGGSSK(Palmitoyl)-NH2
modifications: N-terminus assumed
SMILES: CCCCCCCCCCCCCCCC(=O)NCCCC[C@H](NC(=O)[C@H](CO)NC(=O)[C@H](CO)NC(=O)CNC(=O)CNC(=O)[C@H](CO)NC(=O)[C@H](CO)NC(=O)CNC(=O)CNC(=O)[C@H](C)NC(=O)[C@@H](NC(=O)[C@H](CC(C)C)NC(=O)[C@H](Cc1c[nH]c2ccccc12)NC(=O)[C@H](CCC(N)=O)NC(=O)[C@@H](NC(=O)[C@H](Cc1ccccc1)NC(=O)[C@H](CC(=O)O)NC(=O)[C@H](CCC(N)=O)NC(=O)[C@H](C)NC(=O)[C@H](CCCNC(=N)N)NC(=O)[C@H](CCCNC(=N)N)NC(=O)[C@H](CO)NC(=O)[C@H](CC(=O)O)NC(=O)[C@H](CC(C)C)NC(=O)[C@H](Cc1ccc(O)cc1)NC(=O)[C@H](CCCCN)NC(=O)[C@H](CO)NC(=O)[C@H](Cc1ccc(O)cc1)NC(=O)[C@H](CC(=O)O)NC(=O)[C@H](CO)NC(=O)[C@@H](NC(=O)[C@H](Cc1ccccc1)NC(=O)[C@@H](NC(=O)CNC(=O)[C@H](CCC(N)=O)NC(=O)[C@H](CO)NC(=O)[C@@H](N)Cc1c[nH]cn1)[C@@H](C)O)[C@@H](C)O)C(C)C)C(C)C)C(N)=O
With B4, the cAMP EC50 (assay 1) in the assay with human glucagon receptor is 9.04 nM; with human GLP-1 receptor it was 1.14 nM.

B5: g744 (peptide)
peptide: HSQGTFTSDYSKYLDSRRAK([γGlu-Palmitoyl])DFVQWLEAGG-NH2
modifications: N-terminus assumed
SMILES: CCCCCCCCCCCCCCCC(=O)N[C@@H](CCC(=O)NCCCC[C@H](NC(=O)[C@H](C)NC(=O)[C@H](CCCNC(=N)N)NC(=O)[C@H](CCCNC(=N)N)NC(=O)[C@H](CO)NC(=O)[C@H](CC(=O)O)NC(=O)[C@H](CC(C)C)NC(=O)[C@H](Cc1ccc(O)cc1)NC(=O)[C@H](CCCCN)NC(=O)[C@H](CO)NC(=O)[C@H](Cc1ccc(O)cc1)NC(=O)[C@H](CC(=O)O)NC(=O)[C@H](CO)NC(=O)[C@@H](NC(=O)[C@H](Cc1ccccc1)NC(=O)[C@@H](NC(=O)CNC(=O)[C@H](CCC(N)=O)NC(=O)[C@H](CO)NC(=O)[C@@H](N)Cc1c[nH]cn1)[C@@H](C)O)[C@@H](C)O)C(=O)N[C@@H](CC(=O)O)C(=O)N[C@@H](Cc1ccccc1)C(=O)N[C@H](C(=O)N[C@@H](CCC(N)=O)C(=O)N[C@@H](Cc1c[nH]c2ccccc12)C(=O)N[C@@H](CC(C)C)C(=O)N[C@@H](CCC(=O)O)C(=O)N[C@@H](C)C(=O)NCC(=O)NCC(N)=O)C(C)C)C(=O)O
B5: the cAMP EC50 (assay 1) with human glucagon receptor is 0.0392 nM; with human GLP-1 receptor it was 2.45 nM.

B6: g720 (peptide)
peptide: HGQGTFTSDYSRYLDSK([γGlu-Palmitoyl])RARDFVEWLVAGG-NH2
modifications: N-terminus assumed
SMILES: CCCCCCCCCCCCCCCC(=O)N[C@@H](CCC(=O)NCCCC[C@H](NC(=O)[C@H](CO)NC(=O)[C@H](CC(=O)O)NC(=O)[C@H](CC(C)C)NC(=O)[C@H](Cc1ccc(O)cc1)NC(=O)[C@H](CCCNC(=N)N)NC(=O)[C@H](CO)NC(=O)[C@H](Cc1ccc(O)cc1)NC(=O)[C@H](CC(=O)O)NC(=O)[C@H](CO)NC(=O)[C@@H](NC(=O)[C@H](Cc1ccccc1)NC(=O)[C@@H](NC(=O)CNC(=O)[C@H](CCC(N)=O)NC(=O)CNC(=O)[C@@H](N)Cc1c[nH]cn1)[C@@H](C)O)[C@@H](C)O)C(=O)N[C@@H](CCCNC(=N)N)C(=O)N[C@@H](C)C(=O)N[C@@H](CCCNC(=N)N)C(=O)N[C@@H](CC(=O)O)C(=O)N[C@@H](Cc1ccccc1)C(=O)N[C@H](C(=O)N[C@@H](CCC(=O)O)C(=O)N[C@@H](Cc1c[nH]c2ccccc12)C(=O)N[C@@H](CC(C)C)C(=O)N[C@H](C(=O)N[C@@H](C)C(=O)NCC(=O)NCC(N)=O)C(C)C)C(C)C)C(=O)O
Regarding B6, the cAMP EC50 (assay 1) with human glucagon receptor is 0.352 nM; with human GLP-1 receptor it was 0.0534 nM.
For HSQGTFTSDYSKYLDSRRAQDFVQWLVAGGGGGGK-NH2 [g325], in that order: 0.0103 nM and 0.0261 nM.

B7: g737 (peptide)
peptide: HGEGTFTSDYSKYLDSK([γGlu-Palmitoyl])RAADFVAWLVAGG-NH2
modifications: N-terminus assumed
SMILES: CCCCCCCCCCCCCCCC(=O)N[C@@H](CCC(=O)NCCCC[C@H](NC(=O)[C@H](CO)NC(=O)[C@H](CC(=O)O)NC(=O)[C@H](CC(C)C)NC(=O)[C@H](Cc1ccc(O)cc1)NC(=O)[C@H](CCCCN)NC(=O)[C@H](CO)NC(=O)[C@H](Cc1ccc(O)cc1)NC(=O)[C@H](CC(=O)O)NC(=O)[C@H](CO)NC(=O)[C@@H](NC(=O)[C@H](Cc1ccccc1)NC(=O)[C@@H](NC(=O)CNC(=O)[C@H](CCC(=O)O)NC(=O)CNC(=O)[C@@H](N)Cc1c[nH]cn1)[C@@H](C)O)[C@@H](C)O)C(=O)N[C@@H](CCCNC(=N)N)C(=O)N[C@@H](C)C(=O)N[C@@H](C)C(=O)N[C@@H](CC(=O)O)C(=O)N[C@@H](Cc1ccccc1)C(=O)N[C@H](C(=O)N[C@@H](C)C(=O)N[C@@H](Cc1c[nH]c2ccccc12)C(=O)N[C@@H](CC(C)C)C(=O)N[C@H](C(=O)N[C@@H](C)C(=O)NCC(=O)NCC(N)=O)C(C)C)C(C)C)C(=O)O
Turning to B7, the cAMP EC50 (assay 1) came to 734 nM with human glucagon receptor and 0.0814 nM with human GLP-1 receptor.
With HSQGTFTSDYSKYLDSERAK([Ahx-Palmitoyl])DFVAWLERGG-NH2 (not fully specified) [g787], the cAMP EC50 (assay 1) with human glucagon receptor was 0.0436 nM; with human GLP-1 receptor, 6.65 nM.
For HSQGTFTSDYSKYLDSRRAQDFVQWLVAGGSGSGSG-NH2 [g402], in that order: 0.0596 nM and 0.0857 nM.

For the origin of these results see patent US20190185537A1 (AstraZeneca / MedImmune, published 2019).
